Assay: yeast display, Sf9 membrane polyspecificity reagent, FACS + sequencing; frameworks hold sequencing errors
How it was run: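 Sorting gates, low and high (top ~1%), were placed on anti-HA fluorescence to track expression and on streptavidin fluorescence to track reagent binding. A clone's polyreactivity label is taken from the gate it came out of. The reagent was 10% biotinylated, detergent-solubilized Sf9 membrane, applied for 1 hour at 4 °C to galactose-induced yeast display cells.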

| Sequence | polyreactivity (PSR sort gate) |
| --- | --- |
| QVQLVESGGGLVQAGGSLRLSCAASGSIFPYYAMGWYRQAPGKEREFVAAITISGGSTYYADSVKGRFTISRDNAKNTVYLQMNSLKPEDTAVYYCAVDRGISVGYTRFDYWGKGTQVTVSS | low polyreactivity |
| QVQLVESGGGLVQAGGSLRLSCAASGSIFPYYAMGWYRQAPGKEREFVASISSVTSTYADSVKGRFTISRDNAKNTVYLQMNSLKPEDTAVYYCAADRAYSWYSVSRYNYWGQGTQVTVSS | low polyreactivity |
| QVQLVESGGGLVQAGGSLRLSCAASGSIFPYYAMGWYRQAPGKVRELVATISSGGSTKYADSVKGRFTISRDNAKNTVYLQMNSLKPEDTAVYYCAADWYLGPYSWYTEKYNYCGQGTQVTVSS | high polyreactivity |
| QVQLVESGGGLVQAGGSLRLSCAASGSIFPYYTMGWYRQAPGKERELVAGISSGGSTNYADSVKGRFTISRDNAKNTVYLQMNSLKPEDTAVYYCNARRYWLRYDYWGQGTQVTVSS | low polyreactivity |
| QVQLVESGGGLVQAGGSLRLSCAASGSIFPYYVMGWYRQAPGKERYADSVKGRFTISRDNAKNTVYLQMNSLKPVDTAVYYSAAKVPEPPSLDESDYWGQGSQVTVSS | low polyreactivity |
| QVQLVESGGGLVQAGGSLRLSCAASGSIFQANAMGWYRQAPGKERELLAAISSRGGSTYYADSVKGRFTISRDNAKNTVYLQMNSLKPGDTAVYYCAADSIQYTARPYDYWGQGTQVTVSS | low polyreactivity |
| QVQLVESGGGLVQAGGSLRLSCAASGSIFQDNTMGWYRQAPGKESELVAAISWSATSTYYADSVKGRFTISRDNAKNTVYLQMNSLNPEDTAVYYCAARYWLFPPGYNYWGQGTQVNVSS | high polyreactivity |
| QVQLVESGGGLVQAGGSLRLSCAASGSIFQGNAMGWYRQAPGKERELVAAISQSGGRTYYADSVKGRFTITRDNAKNTVYLQMNSLKPEDTAVYYCNTTKVYRLRFDYWGQGTQVTVSS | low polyreactivity |
| QVQLVESGGGLVQAGGSLRLSCAASGSIFQGYAMGWYRQAPGKERELVAAITASGGSTYYADSVKGRFTISRDNAMNTVYLQMNSLKPEDTAVYYCAAVRKSVGVKYDFWGQGTQVTVSS | high polyreactivity |
| QVQLVESGGGLVQAGGSLRLSCAASGSIFQGYAMGWYRQAPGKERELVAVITSSGGSTYYADSVKGRFTISRDNAKNTVYLQMNSLKPEDTAVYYCAVGLLVYSRTYIGQAFFRYNYWGQGTQVTVSS | high polyreactivity |
| QVQLVESGGGLVQAGGSLRLSCAASGSIFQIYAMGWYRQAPGKERELVAAINSGGITKYADSVKGRFTISRDNAKNTVYLQMNSLKPEDTAVYYCAKRYGWPYGRFDYWGQGTQVTVSS | low polyreactivity |
| QVQLVESGGGLVQAGGSLRLSCAASGSIFQKYAMGWYRQAPGKDRELVAAISWDGGRTYYADSVKGRFTISRDNAKNTVYLQMNSLKPEDTAVYYCYWYDYWGHGTQVTVSS | high polyreactivity |
| QVQLVESGGGLVQAGGSLRLSCAASGSIFQLNAMGWYRQAPGKERELDAAITSGGSTYYADSVKGRFTISRDNAKNTVYLQMNSLKPEDTAVYYCAAYYLYTTPTSEWLSGYDYWGQGTQVTVSS | low polyreactivity |
| QVQLVESGGGLVQAGGSLRLSCAASGSIFQNYAMGWYRQAPGKERELVAAISWSGDTYYADSVKGRFTISRDNAKNTVYLQMNSLKPEDTAVYYCAATYPYSLYYPYYGGDYDYWGQGTQVTVSS | low polyreactivity |
| QVQLVESGGGLVQAGGSLRLSCAASGSIFQPNAMGGGGQAPGKERELVASIRGRGGDTYYADSVKGRFTISRDNAKNTVYLQMNSLKPEDTAVYYCAADYRWGQGTQVTVSS | low polyreactivity |
| QVQLVESGGGLVQAGGSLRLSCAASGSIFQPYAMGWYRPAPGKERELVAAINGRGGSTHYADSVKGRFTISRDNAKNTVYLQMNSLNPEDTAVYYCAATWAYPGSGYVYFYGNDYWGQGTQVTVSS | high polyreactivity |
| QVQLVESGGGLVQAGGSLRLSCAASGSIFQPYAMGWYRQAPGKEREFVAAISRSGGITYYADSVKGRFTISRDNAKNTVYLQMNSLKPEDTAVYYCATGRQVVRSYSEGDYWGQGTQVTVSS | low polyreactivity |
| QVQLVESGGGLVQAGGSLRLSCAASGSIFQPYAMGWYRQAPGKERELVATISSSGSTYYADSVKGRFTISRDNAKNTVYLQMTSLKPEDTAVYYCAAVYSDGPYNGYWLEYEYWGQGTQVTVSS | low polyreactivity |
| QVQLVESGGGLVQAGGSLRLSCAASGSIFQRYAMGWYRQAPGKEREFVAAISGRGGSTYYADSVKGRFTISRDNAKNTVYLQMNSLKPEDTAVYSCAADSSRFYGRPRYYYWGQGTQVTVSS | high polyreactivity |
| QVQLVESGGGLVQAGGSLRLSCAASGSIFQSYAMGWYRQAPGKERELVAAIDRSGTSTYYADSVKGRFTISRDNAKNTVYLQMNSLKPEDTAVYYCNTLRRSWQMDYWGQGTQVTVSS | low polyreactivity |
| QVQLVESGGGLVQAGGSLRLSCAASGSIFQSYDMGWYRQAPGKERELVAAIRSGDSTYYADSVKGRFTISRDNAKNTVYLQMNSLKPEDTAVYYCNARYGNESQGWEDYWGQGTQVTVSS | low polyreactivity |
| QVQLVESGGGLVQAGGSLRLSCAASGSIFQSYSMGWYRQAPGKERELVAAISRGGSTYYADSVKGRFTISRDNAKNTVYLQMNSLKPEDTAVYYCAAGSGGGKYLYYYWGQGTQVTVSS | low polyreactivity |

| Sequence | polyreactivity (PSR sort gate) |
| --- | --- |
| QVQLVESGGGLVQAGGSLRLSCAASGSIFQVYAMGWYRQAPGKETELVAAIRRRGGSTYYADSVKGRFTISRDNAKNTVYLQMNSLKPEDTAVDYCAARTVGFYRYDYWGLGTQVTVSS | low polyreactivity |
| QVQLVESGGGLVQAGGSLRLSCAASGSIFQVYAMGWYSQAPGKERELVAAITKSGVSTYYADSVKGRFTISRDNAKNTVYLQMNSLKPEDTAVYYCAAPRYVRYHRGYGFDYWGQGTQVTVSS | low polyreactivity |
| QVQLVESGGGLVQAGGSLRLSCAASGSIFQWYAMGWYRQAPGKERELVAAITISGGSTHYADSVKGRFTISRDNAKNTVYLQMNSLKPEDTAVYYCATPRYPSYDYWGQGTQVTVSS | low polyreactivity |
| QVQLVESGGGLVQAGGSLRLSCAASGSIFQYNAMGWYRPAPGKERELVAAISSRGGITYYADSVKGRFTISRDNAKNTVYLQMNSMKPEDTAVYDCAAVAYYSEVRWYEYWGQGTQVTVSS | high polyreactivity |
| QVQLVESGGGLVQAGGSLRLSCAASGSIFQYNAMGWYRQAPGKEREFVAAISSRGGITYYADSVKGRFTISRDNAKNTVYLQMNSLKPEDTAVYYCAAEAYYSEVRWYEYWGQGTQVTVSS | high polyreactivity |
| QVQLVESGGGLVQAGGSLRLSCAASGSIFQYNAMGWYRQAPGKERELVAAISSRGGITYYADSVKGRFTISRDNAQNTVYLQMNSLKPEDTAVYYCAAEAYYSEVRWYEYWGQGTQVTVSS | high polyreactivity |
| QVQLVESGGGLVQAGGSLRLSCAASGSIFQYNAMGWYRQEPGKERELVATITYIGGRTYYAYSVKGRFTISRDNAKNTVYLQMNSLKPEDTAVYYCAAEYYVISSPSFYEYDYWGQGTQVTVSS | low polyreactivity |
| QVQLVESGGGLVQAGGSLRLSCAASGSIFQYYAMGWYRPAARKERELVAAISWSGGSTYYADSVKGRFTISRDNAKTTVSFLMNSLKPEDTAVYYCNARLYHLDYQGRIIRYDYWGQGTQVTESS | high polyreactivity |
| QVQLVESGGGLVQAGGSLRLSCAASGSIFQYYAMGWYRQAPGKEREFVAAISSSGGSTYYADSVKGRFTISRDNAKNTVSLQMNSLKPEDNAVYYCNTPYNGFRFDYWGQGTQVTVSS | low polyreactivity |
| QVQLVESGGGLVQAGGSLRLSCAASGSIFQYYTMGWYRQAPGKERELVATISRRGGTTYYADSVKGRFTISRDNAKNTVYLQMNILKPEDTAVYYCNADSRTYRYYWSYGYWGQGTQVTVSS | high polyreactivity |
| QVQLVESGGGLVQAGGSLRLSCAASGSIFRAYAMGWYRQAPGKERELVADISIGDNTYYADSVKGRFTISRDNAKNTVYLQMNSLKPEDTAVYYCAAVSDDVPWYWPQYTILDYWGQGTQVTVSS | high polyreactivity |
| QVQLVESGGGLVQAGGSLRLSCAASGSIFRAYAMGWYRQAPGKERELVATIRKSGGSTYYADSVKGRFTISRDNAKNTVYLQMNSLKPEDTAVYYCAARTIRYVNFYYWGQGTQVTVSS | high polyreactivity |
| QVQLVESGGGLVQAGGSLRLSCAASGSIFRCNAMGWYRQAPGKERELVAVINSSGGSTYYADSVKGRFTISRDNAKNTVYLQMNSLKPEDTAVYYCAADLFLDGSSQYDPNWWPDGWNTYRLLGGYWGQGTQVTVSS | low polyreactivity |
| QVQLVESGGGLVQAGGSLRLSCAASGSIFRDNAMGWYRQAPGKERELVASIRSSGGRTYYADSVKGRFTISRDNANNTVYLQMNSLKPEDTAVYYCAADWIYAPWYYQESVEYYYWGQGTQVTVSS | low polyreactivity |
| QVQLVESGGGLVQAGGSLRLSCAASGSIFRDYTMGWYRQAPGKERELVAAIRQDGGTTTYADSVKGRFTISRDNAKNTVYLQMNSLKPEDTAVYLWGQGTQVTVSS | low polyreactivity |
| QVQLVESGGGLVQAGGSLRLSCAASGSIFRFYAMGWYRQAPGKERELVADISWRGGSTYYADSVTGRFTISRDNAKNTVYLQMNSLKPEDTAVYYCAADGPGKYDYWGQGTQVTVSS | high polyreactivity |
| QVQLVESGGGLVQAGGSLRLSCAASGSIFRFYAMGWYRQATGKEREFVASITGTGGSTYYADSVKGRFTISRDNAKNTVYLQMNSLKPEDTAVYYCNARPYGWYDTYRLYGYWGQGTQVTVSS | high polyreactivity |
| QVQLVESGGGLVQAGGSLRLSCAASGSIFRGKAMGWSRQAPGKERELVAGINRAGSTKYADSVKGRFTISRDNAKNTVYLQMNSLKPEDTAVYYCAAVRYERGLWSDYWGLGTQVTVSS | high polyreactivity |
| QVQLVESGGGLVQAGGSLRLSCAASGSIFRGNAMGWYIQAPGKERELVAGINRAGSTKYADSVKGRFTISRDNAKNTVYLQMNSLKPEDTAVYYCAAVRYVRCLWSDYWGQGTKVTVSS | high polyreactivity |
| QVQLVESGGGLVQAGGSLRLSCAASGSIFRGNAMGWYRQAPGKERELVAAISKSGGSTYYADSVKGRFTISRDNAKNTVYLQMNSLKPEDTAVYYRAARTTYLYGMYYWGQGTQVTVSS | low polyreactivity |
| QVQLVESGGGLVQAGGSLRLSCAASGSIFRGNAMGWYRQAPGKEREMVAAISVSGSRTYYADSVKGRFTISRDNAKNTVYLQMNSLIPEDTAVYYCNAVLRVKGSGDFDYWGEGTQVTVSS | high polyreactivity |

Source: the nanobody polyreactivity screen of Harvey et al. (2022)
